Laboratory results as given in the DeepSol protein solubility set.

Experiment: soluble on expression in E. coli; label from the status in PepcDB or PDB records

Soluble on expression in E. coli, not soluble:
MAHHHHHHMKYTEITIDDGAYAKIFMHSIKYSCDDVCGILIGKYLSSNEKKKKCLITNYIPLFHTHILSPYLNLAFTLVENYYKDKDERIIGYFHISSDDSKNSDIENIKVCELISEKLIKNYNDAFVCLLEFSKYVNDEDNCLNIFMKNDKSNWEKGNVVISNKNKEFLKKNISNQHYLNIYDFDDHLNSMKCDFMNPDLFNNVS, MVVLGRIAGPHGIRGQIKVIPFTEYVDGLMEYPVWCLSRDEKNWQIVRPATFFIHDNLLIVTLTGYSDRTSASELKGLLVAVPRSQLPPLSKDGEDGYYWTDLIGISVVNMQGEPLGTVAGLFETGANDVLRVRLSGSSKDELIPFVDQVIRQVDLESRQITVDWELGYLEHHHHHH, SRSFRPLYRLIGWIDRFRVNEPVQELVMAKTDVTEFRKLSEAMLRTAHHNVEVFEQQKEFISHASHELQTPLAISRNKLEMLLQDPSLNEQQLEQIYKAIQSINHIVQLNKTLLLYSKIENHQFPEEESIDVNELLHNLAEEYEAIFANRRIRIVWSRSEPMVLSMNPTLAKVLLSNLLKNAYLHNLERDGEIHIDLTSMHCSIANTGVKNALDETLIFERFYHDMKQAHSSGLGLPIARSICQLYGLRLTYRFENGKHTFSIGKEA, MGSDKIHHHHHHKAPLDEIADDSFWSDETLVKYYVNDLYSEISVDGLQLQENRSDNSVSAQRDKYRASWFKFNYDMVSASDPQDDDVWEDYYVKVRKCNRFFERIGTSTIEESEKSRLTGEVHFLRAMFYFEMVKRYGGVILLDKVLTMEDNWEIPRSSEKECYDFILEDLKKATEMLPASYGSREKGRATKGAAYALKSRVELYDKRYEDVIKSCAEVYKLGYELVDGTTPEKYRSIWWTTNKDNKEIIFDVQYKSPDVYNNMMVCNMVTYINDKYGDRGWGGLGPTQELIDAFEMADGTPATQYSQAPADQVFDINTCGIYEGREPRFYANIVFHGSQIFFNADKGAVTVDRYLMDTPDKGDGSLTGYNVWKWIDYDNYNYPYAGAGSPDFSTNWIILRYAEIYLNDAEARLETGDVEGARKAVNMIRQRVGLPDLTESDPEKLRELIRKERRIEFAFEEQRFYDVRRWKIGPETQTTLHGVRFVSPTEFKVTKTDIRTWNDRLYLTPVPHDEIVRSSVLKQNLGY, MSLLLSATTSIHDLVTSHPYLIEVLADYAPAFAKLRNPLLRNTLGRVATLQQAADLAGLELTGLMAHLARAIMEHTKEAVTLVPRGAETPAHAVADGDSGCGGCTPRPAEGNTADRATRLATLRALLERLHQGTPLADLKEAFASAVGGISAAEVASLEKELVAGGVAETEIKRLCSLHVDIFREALAPQHVPDMPPGHPVHTYRAENAEATRIADEIISQIDRMRSVPGDTESPLDELAWSFSRRHVADLLADLAHVERHYTRKEMQLFPMLEENGIEAPPKVMWEVHDDIRSLLRKARETVEGPSPVAAATVARDAALAVKDMVDKEETVLFPMALESLTEAQWGRVRHGEDEIGYAWVTPEGEWTPQAADTPESLTMEGAATGTPDRVTLGTGTLTVETLDRMLRTLPLDLSLVDAEDRVAYYTDSTHRIFPRSAGVIGRNVRNCHPPKSVHMVEEILARFKTGERDEAAFWIELGGRFLHIRYFAVRSDEGRYLGCLEVAQDVTDIRALSGQRRLLDWNEGHHHHHH, MNMPLISIIMPVYNAECYLNQGILSCLNQSYQNIELILIDDGSTDKSIEIINNIIDKDKRVKLFFTPTNQGPAAARNIGLEKAQGDYITFLDSDDFIANDKLEKQLNFMLQNHLVMTHGNYAFCDLEGNQIKLVTTSKKIDYLTLLQGNQFKIMTVLVERESIKLLRFPNIKHEDYAFFLDCLKEVKQSILYSHQASSFVRIGKVSVSSNKFKSAIWTFNIYFKREKLGVVKSIYYFILYAYNGFIKYKK, MGSDKIHHHHHHMENLIKIDTVDQYNKMFGLETLHPLVSVVDLSKSETWPTNFRVNYGIYGLFLKDTKCGDIRYGRQYYDYQEGTVVGFAPGQVTGIELKDGTRPLAHGLLFHPDLIRGTALGRDIKRYSFFSYESNEALHLSEEEKGIFVDCLRKIQIELEHSIDKHSKRLIAMNIELLLDYCLRFYDRQFTTRAETNKDVLVRFERLLDEYLQSDLLRQEGLPTVRYFAEKICLSPNYFGDLIKKETGKTAQENIQDRIISLAKEWIVGTNKTVSQIAYDLGFQYSQHFSRIFKKTVGCTPNEYRKSQMS, MGSDKIHHHHHHLSSPMRLSFLAAAFAAPLVVSASGAGAAEPTRYPLTLQTCGQTITFDRAPSRVVSIGQSSTEILYLLGLADKVVGTALWVGPVIAGYEAVDAKVPRLADNDPSFESVVGKKPDLVTNQYQWQVGPKGVVATNAQFAELKIPVYTSPADCVGKDNSEGGDGLRTSRFTTDLIYQEIEDLARIFDVSERGEVLINDLKAREAAAKKKIASLRSPVSAVFWFSSADLDIDPYVAGSDGAPGYILSVLGITNVIKSEEEWPTVGWETIAKANPTIIVAGEMTRRRFPVDDIAVKKTFLANDPVTRLMPAVQEGRIVPLDAQAMNPTIRTIEGIEVVADAVIKAGLAQ, HIKVGFSPEKLQPYTQLPSDFNEFWNKTKAEAARFPLTYTKEYVEKYSTDKIDCYLIRLQLNKQSQCIYGYLFYPKAEGKYPVVLCPPGAGIKTIKGPMRHKYYAEEGCIRFEIEIHGLNPELDEDTFGEISRAFSSRENGYLVNGLDSRENYYMKRVYLACVRSIDLLTSLPEWDGKNVIVQGGSQGGALALITAGLDKRVTACVANHPALSDMAGYKAGRAGGYPHLFKNTVDMDTPAKMKTLAYYDVVNFAKQITVPVYMTWGFNDNTCPPTTSYIVYNVLNCPKEALITPVNEHWTSEDTEYGHLLWIKKHLK, MGSDKIHHHHHHMSYRYNSVVDLIHKQISAGTLKVGDRLPSIRQLSLLTGFSTVTIHHAYELLESHGYCSARPRSGFYLVRTPLQQMGDFPHDGENSIEPISIVDFPHALLLSWQKRTLDAFGAPHPSADLFDCADVDRVMCRLLRRRKAIAANSVGGDPELRLQIAKRAAQRGVVTRPQDIVITGSAIQAFNLCLDALTDPGDVVLVESPSYFPALSSIKRRNLRVIEIYSHPVNGIDPDQLEHLVRNNEIRVAVLMASNHFPTGITYSEDRMKRIVSVAKKNDVTIIANSMLDDITYDSVTDNSLRKFDSGETVLQFSSFECGLSPQYGLGWIVAGKHSQKILAASYLGDYAPNDQRIQQAVAEYLSSRSHDRQLRRIRETLASRMERGLQLLADSLPTGCSVSRPTGGYMCWVRGPQKFTSMTAVLQLHKQNVSILPGSVFSAAARSFENFFALNLSFPWSAENEAKIGSIGDLIAQIVGR, MPRPDNVPVYTMRQLAAFVAVAETGTISGAAERMHLSQSALSAAVTDLEKALKAQLCVRRRARGVQLTPTGEAVLSRARALLQQAGELQSDASGEGGVVAGPIAVGCYPALGPTILPSMLYAFTAEYPRASVEFREDTQNRLRTQLEGGELDVAIVYDLDLSPEWQTVPLMTREPMVVLGAEHPLAGVDGPVRLADLAEHPMVLLDAPPSTNHAMDVCREAGFAPRVAYRTANFETARAFVGRGLGWTLLLQRPRVDVTYEGLPVVVKPIAEPKPASVAVVVAWHQEATLSRVARAFIRFVTA, MGSDKIHHHHHHVTEPLKFQWCDRLGDLPREDWNAIAQPLATPFLEWDWLHDLEASGSVIAKAGWQPCHLVVWRGDRLVAAAPLYLKGHSYGEFVFDQQWADLAGRLGLRYYPKLLGMTPLTPAVGYRFLIAPAEDEATLTGLMLREIDRFCDNNQILSCNFLYVDPDWQPLVEAAGYSAWQHHNSVWQNRGFRTFDDYLGMFNANQRRNIKREVKSMERAGLTLTCLSGDQIPRDYFPLMYRFYSDHCDKFGWWGSKYLTRDFFDRAMHHSRHRLLFVAATPEGSDRPIAMSFCVHKGDRLYGRYWGCDHEIDNLHFNVCYYKPIEWAIANGIQSFDPGAGGSHKKRRGFPATPNWSLHRWYQPRFGQILGTWLRQVNELESQEIEAINAELPFSRPEVPLN, MSSEDFYRELKQRSLFEAIHLIEQELLKVESQIGTDALPKNEKLNLKVNASLGFENAQLVSTKPLGKDKLALETNLIGLTGEQGVLPQHYSELALHRLKEGDHAMVDFYDIFNHRLLSLYYRSWQLSQLTIQARAHAKNQRSPLTDCMSSLTGGGNDLALHYGGMYASPTRSKGALKSILECLSGCQIRIHEFQGQWMRLSKSEQTRLVSKSMPEGQFAQLGAGASLGKKAWNINASTTIEFLPKESKQVTNLLPKTNTLKTIKQVAGDFIGKHKHVKWQLTTKHSLLPQVQISKQQGQLGVGSVLKKHERTEDRNITITV

Soluble on expression in E. coli, soluble:
MSLNLSFAAIDFETATGYMESACAVGIVTVTDGEITDEYYSLIQPPENEYWRANMLVHGITPGMTESLPGFHAIYPEVKKRLQGNVVVAHNEQFDRNVLKNTMRMYGLDYDELSLPERWECTCRIYRSLGYKPVNLSACCEREGIELKHHEALSDARGCAKLYLNFLEKYRPLSTEGHHHHHH, MEINIFNTNKKYDVIYADPPWRYNDRKCNGACEHHYDTMTLEEIKKLPIKELCEKDCVLFLWTTYPMLKEALEVMEAWGFKYKSIAFQWIKLNRSGNGKFFGLGRWTRGNTEPCLLAVKGKPSRKSNSVSQLIEYPLGKHSAKPPITRDKIKELMGEECKCLELFARNNIEGWDCWGNEVGKMDEVILEHHHHHH, NGAFFCNECDCRFSEEASLKRHTLQTHSDK, MARIAGVEIPRNKRVDVALTYIYGIGKARAKEALEKTGINPATRVKDLTEAEVVRLREYVENTWKLEGELRAEVAANIKRLMDIGCYRGLRHRRGLPVRGQRTRTNARTRKGPRKTVAGKKKAPRK, MILLDTNVISEPLRPQPNERVVAWLDSLILEDVYLSAITVAEMRLGVALLLNGKKKNVLHERMEQSILPLFAGRILPFDEPVAAIYAQIRSYAKTHGKEIAAADGYIAATAKQHSMTVATRDTGSFFAADVAVFNPWHLEHHHHHH, MREIIFLVEEAEEGGFVARALGEAIFTEGETWEELKEMVRDAVRCHFGEEAPPIIRLHFVREEVLTP, DYESPIVNVVEACAPAVVKIDVVKTVKTSFFDPYFEQFFKKWFGELPPGFERQVASLGSGFIFDPEGYILTNYHVVGGADNITVTMLDGSKYDAEYIGGDEELDIAVIKIKASDKKFPYLEFGDSDKVKIGEWAIAIGNPLGFQHTVTVGVVSATNRRIPKPDGSGYYVGLIQTDAAINPGNSGGPLLNIHGEVIGINTAIVNPQEAVNLGFAIPINTVKKFLDTILTQKKVEKAYLGV, MSLGKDIKVGYNWELSGNVSSYGNSMKNGADLAVKEINAAGGVGGKKLKVLSQDNKSENAEAATVATNLVTKGANVIIGPATSGAAASSTPKVNAAAVPMIAPAATQDNLVYGSDGKTLNQYFFRATFVDNYQGKLLSQYATDNLKAKKVVLFYDNSSDYSKGVAKSFKESYSGKIVDSMTFSAGDTDFQASLTKLKGKEYDAIVMPGYYTETGLIVKQARDLGISKPVLGPDGFDSPKFVQSATPVGASNVYYLTGFTTQGSTKAKAFHDHYVKAYGEEPSMFSALSYDAVYMAAKSAKGAKTSIDIKKALAKLKDFKGVTGKMSIDKNHNVVKSAYVVKLEDGKTSSVNIISAKEGHHHHHH, ALEEVVRYLGPHNEIPLTLTRDSETGHFLLKHFLPILQQYHDTGNINETNPDSFPTDEERNKLLAHYGIAVNTDDRGELWIELEKCLQLLNMLNLFGLFQDAFEFEEPETDQDEEDPSHSKLPEN
